Measured values published in article PMC7547722, “A versatile soluble siglec scaffold for sensitive and quantitative detection of glycan ligands” (Nature Communications, 2020).
Several values for one entry are separate records, joined by “and”; a condition that tells them apart may be missing. Identical values can stand only once. Each block holds one molecule with its values, some of them ahead of it.

Key:
U937 cells = assay: Flow cytometry, Siglec-Fc pre-complexed with Strep-Tactin, streptavidin or anti-human IgG1; type: cell-based; settings: U937; Strep-Tactin-AF647; replicates, Fig. 2
Procedure: (§1) Strep-Tactin-AF647 (0.55 μg/mL, 0.57 pmol), streptavidin (Biolegend), or anti-human igG1 (Biolegend) was added to Siglec supernatant (50 μL) or purified Siglec and allowed to sit at 4 °C for 15 min. After, the pre-complexed solution was added to cells in a 96-well U-bottom plate for 30 min at 4 °C. After, 200 μL of flow buffer (HBSS, 0.1% BSA, 5 mM EDTA) was added and the plate was spun down at 300 rcf for 5 min. The cells were resuspended in 200 μL of flow buffer and processed through the flow cytometer.
(§2) Flow cytometry was performed on a BD LSRFortessa™ X-20 cell analyzer using BD FACSDiva Software Version 8.0.1 and data was processed using FlowJo LLC. Version 9.9.6 and Graphpad Prism 8. The live, single cell populations were gated out with two gates to obtain the median fluorescence intensity (MFI), which indicates binding of the Siglec-Fc-secondary complex to the cell surface. Control cells that were incubated with Strep-Tactin-AF647 (0.55 μg/mL, 0.57 pmol) was used to determine the baseline fluorescence. Number of cells (# cells) plotted indicates percentage of max (% max).

A549 cells = assay: Flow cytometry, pre-complexed Siglec-Fc binding; type: cell-based; settings: Strep-Tactin-AF647, replicates
Procedure: as §1, §2

HEK293T cells = assay: Flow cytometry, pre-complexed Siglec-Fc binding; type: cell-based; settings: HEK; Strep-Tactin-AF647; replicates
Procedure: as §1, §2

HuH7 cells = assay: Flow cytometry, pre-complexed Siglec-Fc binding; type: cell-based; settings: Strep-Tactin-AF647, replicates
Procedure: as §1, §2

Jurkat cells = assay: Flow cytometry, pre-complexed Siglec-Fc binding; type: cell-based; settings: Strep-Tactin-AF647, replicates
Procedure: as §1, §2

K562 cells = assay: Flow cytometry, pre-complexed Siglec-Fc binding; type: cell-based; settings: Strep-Tactin-AF647, replicates
Procedure: as §1, §2

BT549 = assay: Flow cytometry, pre-complexed Siglec-Fc binding to breast cancer cell line; type: cell-based; settings: Strep-Tactin-AF647, replicates
Procedure: as §1, §2

HS578T = assay: as above; type: cell-based; settings: Strep-Tactin-AF647, replicates
Procedure: as §1, §2

MCF7 = assay: as above; type: cell-based; settings: Strep-Tactin-AF647, replicates
Procedure: as §1, §2

MDA-MB-231 = assay: as above; type: cell-based; settings: Strep-Tactin-AF647, replicates
Procedure: as §1, §2

MDA-MB-468 = assay: as above; type: cell-based; settings: Strep-Tactin-AF647, replicates
Procedure: as §1, §2

T47D = assay: as above; type: cell-based; settings: Strep-Tactin-AF647, replicates
Procedure: as §1, §2

ZR-75-1 = assay: as above; type: cell-based; settings: Strep-Tactin-AF647, replicates
Procedure: as §1, §2

basophils (CCR3+) = assay: Siglec ligands on peripheral blood immune cells, flow cytometry; type: cell-based, human; settings: replicate values
Procedure: (§3) Siglec supernatant (50 μL) or purified Siglec was incubated with cells in a 96-well U-bottom plate for 30 min at 4 °C. Following the incubation, 200 μL of flow buffer (HBSS, 0.1% BSA, 5 mM EDTA) was added and the plate was spun down at 300 rcf for 5 min. Strep-Tactin-AF647 (0.55 μg/mL, 50 μL, 0.57 pmol), streptavidin (Biolegend), or anti-human IgG1 (Biolegend) was added to the cells and incubated for 30 min at 4 °C. After, 200 μL of flow buffer (HBSS, 0.1% BSA, 5 mM EDTA) was added and the plate was spun down at 300 rcf for 5 min. The cells were resuspended in 200 μL of flow buffer and processed through the flow cytometer.
as §1
(§4) For human splenocytes, the sample was homogenized in media through a 40 µm filter (Corning) under sterile conditions. Samples were centrifuged at 300 rcf for 5 min. The resulting pellet from the spleen sample and whole human blood were treated with RBC lysis buffer (7 min) and centrifuged at 300 rcf and the RBC lysis was repeated twice more until no RBC remained in the pellet. Samples were treated with human Fc-receptor blocking agent (TruStain FX, Biolegend) in flow buffer (HBSS, 0.1% BSA, 5 mM EDTA). For analysis, the following cocktail was used: hSig8 (PerCP/Cy5.5, clone 7C9, Biolegend cat. no. 347108, 1:200), hCD123 (PE/Cy7, clone 6H6, Biolegend cat. no. 306010, 1:200), hCD19 (PE, clone SJ25C1, Biolegend cat. no. 363004, 1:200), hCD3 (FITC, BD Pharmingen cat. no. 555332, 1:50), hCD14 (BV605, clone M5E2, BD Horizon cat. no. 564056, 1:200), hCD15 (BUV395, clone HI98, BD Horizon cat. no. 563872, 1:200), hCD56 (BV510, clone NCAM16.2, BD Horizon cat. no. 563041, 1:200). For human peripheral blood samples, we additionally used hHLA-DR (APC-Cy7, clone L243, Biolegend cat. no. 307618, 1:200). Pre-complexed Siglec-Fc/Strep-Tactin-AF647 (described above) was added to the antibody cocktail, added to cells, and allowed to stain at 4 °C for 45 min. The cells were then centrifuged at 300 rcf for 5 min and resuspended in flow buffer containing 1 µg/mL propidium iodide prior to analysis by flow cytometry.
as §2

eosinophils (Siglec-8+) = assay: as above; type: cell-based, human; settings: replicate values
Procedure: as §3, §1, §4, §2

monocytes (CD14+) = assay: as above; type: cell-based, human; settings: replicate values
Procedure: as §3, §1, §4, §2

B-cells (CD19+) = assay: as above; type: cell-based, human; settings: replicate values
Procedure: as §4, §2

NK cells (CD56+) = assay: as above; type: cell-based, human; settings: replicate values
Procedure: as §4, §2

T-cells (CD3+) = assay: as above; type: cell-based, human; settings: replicate values
Procedure: as §4, §2

cDCs (CD123dim/HLA-DR+) = assay: as above; type: cell-based, human; settings: cDC; replicate values
Procedure: as §4, §2

neutrophils (CD15+) = assay: as above; type: cell-based, human; settings: replicate values
Procedure: as §4, §2

pDCs (CD123high/HLA-DR+) = assay: as above; type: cell-based, human; settings: pDC; replicate values
Procedure: as §4, §2

[1] = test system: neutrophils (CD15+), human splenocytes; assay: Siglec-Fc (CD22-Fc V1/V2, with or without Fc receptor block) binding to splenocytes, flow cytometry; type: cell-based; settings: Suppl Fig 12; three replicate columns
Procedure: as §4, §2

[2] = test system: B-cells (CD19+), human splenocytes; assay: Siglec-Fc binding to splenocytes, flow cytometry; type: cell-based; settings: Suppl Fig 12; three replicate columns
Procedure: as §4, §2

[3] = test system: NK cells (CD56+), human splenocytes; assay: Siglec-Fc binding to splenocytes, flow cytometry; type: cell-based; settings: Suppl Fig 12; three replicate columns
Procedure: as §4, §2

[4] = test system: T-cells (CD3+), human splenocytes; assay: Siglec-Fc binding to splenocytes, flow cytometry; type: cell-based; settings: Suppl Fig 12; three replicate columns
Procedure: as §4, §2

[5] = test system: monocytes (CD14+), human splenocytes; assay: Siglec-Fc binding to splenocytes, flow cytometry; type: cell-based; settings: Suppl Fig 12; three replicate columns
Procedure: as §4, §2

[6] = test system: peripheral blood immune cells; assay: Comparison of 2-step and pre-complexed Siglec-Fc binding, flow cytometry (Figure 3e-g); type: cell-based, human; settings: Figure 3f; 2-Step; listed as Siglec-7-Fc R124A
[7] = test system: U937 cells treated with neuraminidase; assay: Pre-complexed Siglec-Fc staining of cells treated with Neu-S or Neu-A; type: cell-based
[8] = test system: human peripheral blood monocytes; assay: CD33-Fc binding to monocytes treated with Neu-S or Neu-A; type: cell-based; settings: Figure 6c; WT (no neuraminidase)
Procedure: as §1
For human splenocytes, the sample was homogenized in media through a 40 µm filter (Corning) under sterile conditions. Samples were centrifuged at 300 rcf for 5 min. The resulting pellet from the spleen sample and whole human blood were treated with RBC lysis buffer (7 min) and centrifuged at 300 rcf and the RBC lysis was repeated twice more until no RBC remained in the pellet. […]
as §2, with “Version 9.9.6 and Graphpad Prism 8.” left out, “Number of cells (# cells) plotted indicates percentage of max (% max).” left out

Binding, Monocytes [5]: 7.43 and 2.68 and 5.18
B1: Sig-7 R124A: Siglec-7-Fc essential arginine mutant (protein, UniProt Q9Y286 19-353, looked up, variant R124A)
extracellular domain: QKSNRKDYSLTMQSSVTVQEGMCVHVRCSFSYPVDSQTDSDPVHGYWFRAGNDISWKAPVATNNPAWAVQEETRDRFHLLGDPQTKNCTLSIRDARMSDAGRYFFAMEKGNIKWNYKYDQLSVNVTALTHRPNILIPGTLESGCFQNLTCSVPWACEQGTPPMISWMGTSVSPLHPSTTRSSVLTLIPQPQHHGTSLTCQVTLPGAGVTTNRTIQLNVSYPPQNLTVTVFQGEGTASTALGNSSSLSVLEGQSLRLVCAVDSNPPARLSWTWRSLTLYPSQPSNPLVLELQVHLGDEGEFTCRAQNSLGSQHVSLNLSLQQEYTGKMRPVSGVLL
modifications: extracellular domain fused to human IgG1 Fc
notes: Siglec-7-Fc essential arginine mutant
binding of pre-complexed Siglec-Fc (MFI) (U937 cells): 137 and 149 and 150
binding of pre-complexed Siglec-Fc (MFI) (A549 cells): 129 (2×) and 134
binding of pre-complexed Siglec-Fc (MFI) (HEK293T cells): 85 and 88.7 and 91
binding of pre-complexed Siglec-Fc (MFI) (HuH7 cells): 105
binding of pre-complexed Siglec-Fc (MFI) (Jurkat cells): 90.2 and 95.5 and 99.5
binding of pre-complexed Siglec-Fc (MFI) (K562 cells): 103 and 99.8 and 101
binding of pre-complexed Siglec-Fc (MFI) (BT549): 114 and 117 and 118
binding of pre-complexed Siglec-Fc (MFI) (HS578T): 148 and 144 and 145
binding of pre-complexed Siglec-Fc (MFI) (MCF7): 121 and 126 and 130
binding of pre-complexed Siglec-Fc (MFI) (MDA-MB-231): 165 and 175 and 187
binding of pre-complexed Siglec-Fc (MFI) (MDA-MB-468): 155 and 154 and 158
binding of pre-complexed Siglec-Fc (MFI) (T47D): 116 and 117 and 119
binding of pre-complexed Siglec-Fc (MFI) (ZR-75-1): 229 and 258 and 236
Siglec-Fc binding (Figure 3d) (basophils (CCR3+)): 41.1 and 57.8 and 2.57
Siglec-Fc binding (Figure 3d) (eosinophils (Siglec-8+)): -1.28 and 37.2 and 6.04
Siglec-Fc binding (Figure 3d) (monocytes (CD14+)): 56.5 and 99 and 6.42
Siglec-Fc binding (Figure 3d) (B-cells (CD19+)): 52.4 and 51.4 and 53.1
Siglec-Fc binding (Figure 3d) (NK cells (CD56+)): 14.1 and 38.5 and 10.3
Siglec-Fc binding (Figure 3d) (T-cells (CD3+)): 7.7 and 27 and 12.8
Siglec-Fc binding (Figure 3d) (cDCs (CD123dim/HLA-DR+)): 70.6 and -20.5 and 24.4
Siglec-Fc binding (Figure 3d) (neutrophils (CD15+)): 46.2 and 51.8 and 78.1
Siglec-Fc binding (Figure 3d) (pDCs (CD123high/HLA-DR+)): 57.8 and 10.3 and 41.1
Binding, Neutrophils [1]: 10.1 and 1.12 and 11.5
Binding, B-cells [2]: 8.11 and 1.36 and 3.18
Binding, NK [3]: 1.26 and 1.99 and 1.13
Binding, T-cells [4]: 2.32 and 2.93 and 4.67
Siglec-7-Fc Binding [6]: 9.54 and 11.2

CD33-Fc Binding [8]: 42.3 and 56.8 and 61
B2: CD33-Fc R119A (protein, UniProt P20138 18-259, looked up, variant R119A)
extracellular domain: DPNFWLQVQESVTVQEGLCVLVPCTFFHPIPYYDKNSPVHGYWFREGAIISRDSPVATNKLDQEVQEETQGRFRLLGDPSRNNCSLSIVDARRRDNGSYFFAMERGSTKYSYKSPQLSVHVTDLTHRPKILIPGTLEPGHSKNLTCSVSWACEQGTPPIFSWLSAAPTSLGPRTTHSSVLIITPRPQDHGTNLTCQVKFAGAGVTTERTIQLNVTYVPQNPTTGIFPGDGSGKQETRAGVVH
modifications: extracellular domain fused to human IgG1 Fc
CD33-Fc Binding ([7]; Figure 6a, +Neu-A): 106 and 114
CD33-Fc Binding ([7]; Figure 6a, +Neu-S): 92.4 and 95.2
CD33-Fc Binding ([7]; Figure 6a, WT cells (no neuraminidase)): 77.3 and 79
CD33-Fc Binding ([7]; Figure 6b, +Neu-A): 74 and 74.9
CD33-Fc Binding ([7]; Figure 6b, +Neu-S): 73 and 72.1 and 68.7
CD33-Fc Binding ([7]; Figure 6b, WT cells (no neuraminidase)): 77.3 and 79
